Data: patent publication EP4785962A1, “ANTIBODY-DRUG CONJUGATE TARGETING TROP2, AND PREPARATION METHOD AND USE THEREFOR” (priority 2023, dated 2025)
Residue numbers refer to the chain shown, from its start. One block for each molecule: values may come before it.

Assays:
[1] = system: Human gastric cancer cell line NCI-N87; experiment: Mouse xenograft tumor model NCI-N87; format: in vivo, immunodeficient mice CB17-SCID; settings: intraperitoneal injection
Method: • 1. Mice: immunodeficient mice CB17-SCID (Vital River) aged 6-8 weeks were placed in an SPF experimental environment for 3-5 days before the experiment to better adapt to the current living environment. In all experiments, the long and short diameters of the tumor were measured twice a week using a vernier caliper, and the tumor volume (mm^3) was calculated from the measured data. The calculation formula is as follows: Tumor volume(mm^3) = 0.5 × long diameter(mm) × short diameter(mm) × short diameter(mm) [formula] • 2. Human gastric cancer cell line NCI-N87 (ATCC) cells were resuspended in 1× PBS (Gibco, 10010049) at an appropriate concentration, and the tumor cells were implanted subcutaneously in the right abdomen of the mice at an inoculation amount of 2×10^6 /mouse. When the tumor volume reached 150-200 mm^3, the mice were divided into groups such that the average initial administration volume of each group was substantially the same. After grouping, different doses of antibody-drug conjugates hRs7-DXd, hRS7-MB3 and hTINA1-DXd, or control-drug conjugates IgG-MB3, IgG-DXd and IgG control were administered by intraperitoneal injection. […] Compared with hRS7-DXd, hRS7-MB3 has a stronger tumor inhibitory effect. […] Non-small cell lung cancer cell line HCC827 cells purchased from ATCC were inoculated subcutaneously into mice (2×10^6 /mouse), and when the tumor volume reached 120-150 mm^3, the mice were grouped and administered. Different doses of the antibody-drug conjugate and the control drug were intraperitoneally injected into the mice, and the administration was performed only once throughout the experiment. The growth status of the mice was observed, and the changes in tumor volume of the mice were measured. […] The lung squamous cell carcinoma cell line LK-2 (CBP60105) purchased from Nanjing Cobioer Biosciences was implanted subcutaneously in the right abdomen of the mice at an inoculation amount of 3 × 10 ^6 cells/mouse. When the tumor volume reached 150-200 mm^3, the mice were divided into groups such that the average initial administration volume of each group was substantially the same. The mice were administered only once throughout the experiment and injected intraperitoneally at a dose of 10 mg/kg. IgG-MB3 or IgG-DXd was used as a negative control. It was observed that two TROP2-targeted ADCs were also able to delay tumor growth in a tumor model with relatively low TROP2 expression (FIG. 7). […] The pancreatic cancer cell line BxPC3 cells purchased from ATCC were implanted subcutaneously in the right abdomen of the mice at an inoculation amount of 3 × 10 ^6 cells/mouse. […]

[2] = molecular target: Rhesus Monkey Trop2 protein (Sino Biological 90893-C08H) (rhesus monkey); experiment: BLI (Octet Red96e), antibody on AHC sensor, antigen 100 nM
[3] = molecular target: Recombinant human TROP2 protein (Sino Biological) (human) (UniProt P09758); experiment: as above
[4] = molecular target: human TROP2 protein on the surface of FaDu cells (human) (UniProt P09758); experiment: flow cytometry on FaDu cells, fluorescent secondary antibody
[5] = system: drug-resistant triple-negative breast cancer (TNBC); settings: patients with drug-resistant triple-negative breast cancer (TNBC); cited from earlier work
[6] = system: human pancreatic cancer cell line BxPC-3; experiment: In vitro cytotoxicity test, BxPC3 cells, 6 days; format: cell-based; settings: BxPC3, 6 days of culture
Method: (§1) 10% FBS (SH30406.05, HYCLONE) was added to RPMI 1640 (22400-071, Gibco), and the mixture was mixed well to prepare a BxPC3 cell (ATCC) growth medium. BxPC3 or FaDu cells were adjusted to a concentration of 50000 cells/mL with a growth medium, seeded into a 96-well white-bottom plate (167008, NUNC) at 50 µL per well (2500 cells/well), and incubated overnight in an incubator at 37 °C. The antibody was diluted with growth medium and serially diluted 5-fold from 200 nM (2×) to obtain 9 gradients, with the final concentration being […]. The diluted antibody-drug conjugate or control was added at 50 µL/well, and the total volume was 100 µL. […] The cell pellet was fully lysed by shaking on a plate shaker for 5 min, and the luminescence signal was stabilized by standing at room temperature for 10 min. The culture plate was tested on a microplate reader (spectra MAX i3x, Molecular Divices), the […] were taken, and the cell viability was calculated. […]
(§2) The cell proliferation inhibition rate after 6 days of culture was calculated using the following formula.
(§3) Cell proliferation inhibition rate (%) = […], where a: the average value of experimental sample-added wells after 6 days of culture; b: the average value of control medium-added wells after 6 days of culture. The data were fitted by GraphPad Prism and the IC50 of the drug was calculated (Table 4).

[7] = mouse, in vivo, 10 mg/kg; cited from earlier work
[8] = system: human hypopharyngeal carcinoma squamous cell line FaDu; experiment: In vitro cytotoxicity test, FaDu cells, 6 days; format: cell-based; settings: 6 days of culture
Method: as §1, §2, §3

[9] = Days 1 and 8/every 21 days for 4 cycles; EMEA/H/C/005182/0000; cited from earlier work
[10] = molecular target: T1, Rhesus Monkey Trop2 protein (Sino Biological 90893-C08H) (rhesus monkey, UniProt A0A5F8AGB8 27-274); experiment: BLI (Octet Red96e), antibody on AHC sensor, antigen 100 nM
T1 construct: Bought recombinant protein
T1 sequence: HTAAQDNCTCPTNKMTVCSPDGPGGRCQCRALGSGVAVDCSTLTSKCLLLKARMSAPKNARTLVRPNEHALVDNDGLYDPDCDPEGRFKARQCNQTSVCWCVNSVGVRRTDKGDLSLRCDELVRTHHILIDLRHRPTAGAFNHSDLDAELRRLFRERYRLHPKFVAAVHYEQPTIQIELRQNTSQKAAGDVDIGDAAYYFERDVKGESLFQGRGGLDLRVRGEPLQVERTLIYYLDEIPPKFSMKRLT

[11] = molecular target: T2, Recombinant human TROP2 protein (Sino Biological) (human, UniProt P09758 27-274); experiment: as above
T2 construct: Bought recombinant protein; The two paragraphs give different catalogue numbers; also called TACSTD2
T2 sequence (looked up): T1 sequence with V36M, N67S, V204I

[12] = molecular target: T3, human TROP2 protein on the surface of FaDu cells (human, UniProt P09758 27-323); experiment: flow cytometry on FaDu cells, fluorescent secondary antibody
T3 construct: whole, on cells; also called TROP2 protein on cell surface; human TROP2 protein at the cellular level
T3 sequence (looked up): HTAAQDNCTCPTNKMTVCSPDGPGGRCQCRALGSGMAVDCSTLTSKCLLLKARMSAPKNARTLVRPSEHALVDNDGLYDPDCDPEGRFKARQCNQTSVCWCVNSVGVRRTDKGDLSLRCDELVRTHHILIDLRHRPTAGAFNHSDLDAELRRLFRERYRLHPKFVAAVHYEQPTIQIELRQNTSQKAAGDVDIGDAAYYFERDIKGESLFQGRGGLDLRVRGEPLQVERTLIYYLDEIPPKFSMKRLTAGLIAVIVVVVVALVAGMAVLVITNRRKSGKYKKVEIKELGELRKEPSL

[13] = molecular target: T4, mouse TROP2 (Sino Biological 50922-M08H) (mouse, UniProt Q8BGV3 25-270); experiment: BLI (Octet Red96e), antibody on AHC sensor, antigen in solution
T4 construct: Bought recombinant protein
T4 sequence (looked up): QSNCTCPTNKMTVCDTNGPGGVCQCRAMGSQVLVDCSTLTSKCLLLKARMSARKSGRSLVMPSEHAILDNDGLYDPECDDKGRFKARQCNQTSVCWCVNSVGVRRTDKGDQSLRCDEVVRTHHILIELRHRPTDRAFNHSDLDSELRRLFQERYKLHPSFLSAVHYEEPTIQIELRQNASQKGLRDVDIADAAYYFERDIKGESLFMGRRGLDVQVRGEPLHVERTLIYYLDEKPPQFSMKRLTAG

[14] = molecular target: T5, rat TROP2 (Sino Biological 86246-R08H) (rat, UniProt A0ABK0L8S5 21-268); experiment: as above
T5 construct: Bought recombinant protein
T5 sequence: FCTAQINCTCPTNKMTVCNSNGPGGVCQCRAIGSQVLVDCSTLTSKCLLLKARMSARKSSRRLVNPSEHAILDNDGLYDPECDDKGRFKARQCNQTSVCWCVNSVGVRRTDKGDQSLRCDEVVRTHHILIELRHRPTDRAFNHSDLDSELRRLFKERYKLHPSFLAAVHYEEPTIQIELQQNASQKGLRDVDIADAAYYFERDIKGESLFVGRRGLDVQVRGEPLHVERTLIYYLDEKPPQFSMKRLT

Molecule: hRS7-DXd: antibody hRS7 conjugated with Linker-DXd, average DAR 4.4 [reference compound]
tumor inhibitory effect ([1]; high-dose group (3 mg/kg)): comparable tumor inhibitory effects | tumor inhibitory effect ([1]; low dose (1 mg/kg), compared with IgG-MB3 and IgG-DXd): a certain degree of tumor inhibitory effect

Kd [2]: 32.5 nM | Response [2]: 0.21 | koff [2]: 0.00356 s⁻¹ | kon [2]: 110000 M⁻¹ s⁻¹ | Kd [3]: 22.8 nM | Response [3]: 0.284 | koff [3]: 0.0035 s⁻¹ | kon [3]: 154000 M⁻¹ s⁻¹ | EC50 [4]: 1.7 nM
Molecule: hTINA1 (the antibody used in Ds-1062), positive control antibody

Molecule: Trodelvy [reference compound]
objective response rate (ORR) [5]: 33% | IC50 [6]: 0.42 nM | half-life in mice [7]: 11 h | IC50 [8]: 0.53 nM | HNSTD [9]: 50 mg/kg

Kd [10]: 7.75 nM | koff [10]: 0.000823 s⁻¹ | kon [10]: 106000 M⁻¹ s⁻¹ | Kd [11]: 4.52 nM | koff [11]: 0.00056 s⁻¹ | kon [11]: 124000 M⁻¹ s⁻¹ | EC50 [12]: 1.58 nM | binding result [13]: no binding (tested: 100 nM) | binding result [14]: no binding (tested: 100 nM)
B1: hRS7 antibody (hRS7-IgG1), humanized antibody targeting TROP2 in IgG1 form (antibody, V domains shown)
VH: QVQLQQSGSELKKPGASVKVSCKASGYTFTNYGMNWVKQAPGQGLKWMGWINTYTGEPTYTDDFKGRFAFSLDTSVSTAYLQISSLKADDTAVYFCARGGFGSSYWYFDVWGQGSLVTVSS
VL: DIQLTQSPSSLSASVGDRVSITCKASQDVSIAVAWYQQKPGKAPKLLIYSASYRYTGVPDRFSGSGSGTDFTLTISSLQPEDFAVYYCQQHYITPLTFGAGTKVEIKR
